The values that follow come from patent US20050020528A1.

Assay [1] has as its target fusin/CXCR4 receptor (UniProt P61073). The assay is described as follows: flow cytometry, fluorescently labeled 12G5 on untreated U937 cells. (In general: In flow cytometry, cells or beads pass a laser one at a time.)
For assay [2] the target is unchanged. As to the kind of experiment: flow cytometry on U937 cells, background subtracted from the 12G5 data.

Sequence of UniProt P61073 (P61073 whole entry): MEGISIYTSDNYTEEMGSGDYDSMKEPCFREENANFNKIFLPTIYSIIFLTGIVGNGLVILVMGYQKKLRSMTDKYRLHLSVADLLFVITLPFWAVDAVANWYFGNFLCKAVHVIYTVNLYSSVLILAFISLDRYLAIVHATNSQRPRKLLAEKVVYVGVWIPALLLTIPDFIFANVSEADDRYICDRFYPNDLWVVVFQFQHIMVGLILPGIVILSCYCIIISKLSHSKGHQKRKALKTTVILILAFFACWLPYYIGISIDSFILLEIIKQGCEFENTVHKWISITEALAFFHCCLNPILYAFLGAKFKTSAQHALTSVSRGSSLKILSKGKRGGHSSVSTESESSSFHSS

As to “anti-fusin/CXCR4 12G5 monoclonal antibody”, in the assay with fusin/CXCR4 receptor [1], the Median Fluorescence (net of isotype control) came to 23.2. In the assay with fusin/CXCR4 receptor [2], isotype control (antibody) registered a median fluorescence of 3.6.
